Test results reported in the nanobody polyreactivity screen of Harvey et al. (2022).

Assay: yeast display, Sf9 membrane polyspecificity reagent, FACS + sequencing; frameworks hold sequencing errors
Procedure, shortened: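 Nanobodies came from a synthetic yeast display library in Saccharomyces cerevisiae BJ5465, induced with galactose for 36–48 hours and stained for 1 hour at 4 °C with 10% biotinylated, detergent-solubilized Sf9 membrane reagent. Cells were enriched on streptavidin microbeads and then FACS-sorted, with low and high (top ~1%) gates set on anti-HA fluorescence for expression and streptavidin fluorescence for reagent binding. Each polyreactivity label reflects the gate a clone came from. Genes were amplified by colony PCR, sequenced by MiSeq 2 × 250 and filtered by CDR length.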

Sequence	polyreactivity (PSR sort gate)
QVQLVESGGGLVQAGGSLRLSCAASGRIFKYYTMGWYRQAPGKERELVAAISRDDSTNYADSVKGRFTISRDNAKNTVYLQMNSLKPEDTAVYYCAKGYHQYAGFYYWGLGTQVTVSS	high polyreactivity
QVQLVESGGGLVQAGGSLRLSCAASGRTFHYYAMGWYRQAPGKERELVAGISRRGGSTSYADSVKGRFTISRDNAKNTLYLQMNSLKPEDTAVYYCNADRVTFSWPVNYYWVDYWGQGTQVTVSS	high polyreactivity
QVQLVESGGGLVQAGGSLRLSCAASGFTFRNYAMGWYRQAPGKERELVAAISKRGGNTYYADSVKGRFTISRDNAKNTVYLQMNSLKPEDTAVYYCAAQRYTGQGSGYGYWGQGTQVTVSS	high polyreactivity
QVHLEESGGGLVQAGGSLRLRSAATGRIFKRYAMGWYIQAPGKERDLVAAINWSTGGTYYADSVKGRFTISRDNAKNSVYLHMNSLKPVDTAVYSCAADGDAWFEYLDVEYYYWGQGTQVTVSS	low polyreactivity
QVQLEESGRGLVQAGGSLRLSCAASVSTCCENAMGWYRQAPGKERELVAAISWGGGSKYYADSVKGRFTISRDNAMNTVYLQMNSLKQEDTAVYYCNADVFDDYGYFESDYWGQGTQVTVSS	low polyreactivity
QVQLVESGGGLVQAGGSLRLSCAASGSTFLYYAMGWYRQAPGKERELVAVITGAGGTNYADSVKGRFTISRDNAKKTVYLQMNSLKPEDTAVYYCAARSPGTRWGDYDYWGQGTQVTVSS	low polyreactivity
QVQLVESGGGLVQAGGSLRLSCAASGSTFKYYAMGWYSQAPGKERELVAAISKGATRTYYADSVKGRFTISRDTAKNTVYLQMNSLKPEDTAVYYCAADRLKFPGEYDYWGQGTQVTVSS	high polyreactivity
QVQLVESGGGLVQAGGSLRLSCAASGRIFNTYAMGWYRQAPGKERELVAAISWRGVSTYYADSVKGRFTISRDNAKNTVYLQMNSLKAEDTAVYYCAALPFWWGGYWGQGTQVTVSS	high polyreactivity
QVQLVESGGGLVQAGGTLRLSCAASGSIFYYYAMGWYRQAPGKERELVDTISSSSGSTYYADSVKGRFTISRDNAKNTVYLQMISLKPEDTAVYYCAAPLPHRGYYEGYWGQRTQVTVSS	low polyreactivity
QVQLVESGGGLDQAGGSLRLRCAPSGRIFSYVMGWYRQAPGKERELVAAISGGVRTYYADSVKGRFTISRDNAKNTVYLQMNSLKPEDTAVYYCNADWYRKRNYWGQGTQVTVSS	high polyreactivity
QVQLVESGGGLVQAGGSLRLSCAASGRIFRSYAMGWYRQAPGKERELVAAISSGVITYYADSVKGRFTISRDNEKNTVYLQMNSLKPEDTAVYYCNARWRFLYDYWGQGTQVTVSS	high polyreactivity
QVQLVESGGGLVQAGGSLRLSCAASGIIFSSYAMGWYRQAPGKERELVAAISLSGGSTYYADSVKGRFTISRDNAKNTVYLQMNSLKPEDTAVFYCNTVRQRARFTKVDYWGQGTQVTVSS	high polyreactivity
QDQLVESGGGLVQAGGSLRLSCHSSGFIFTDYAMGWYRQAPGKERELVARITSGGASTYYADSVKGRFTISRDIAKNTVYLQMNSLKPEDTAVYYCAAQARCWGYVYWGQGTQVTVSS	low polyreactivity
QVQLVESGGGLVQAGGSLRLSCAASGYTFKYNAMGWYRQAPGKERELVAAISSRGDRTYYADSVKGRFTISRDNAKNTVYLQMNSLKPEDTVVYYCNKVARPRSRNDSWGQGTQVTVSS	high polyreactivity
QVQLVESGGGLVQAGGSLRLSCAASGRIFPTYTMGWYRQAPGKERELVAHINRGGGSTYYADSVKGRFTISRDNAKYTVYLQMNSLKPEDTAVYYCAVDTYAYRGVSYWSERTYYYWGQGTQVTVSS	low polyreactivity
QVQLVESGGGLVQAGGSLRLSCAASGSTLARYAMGWYRQAPGKERELVAAISSDGRTYYADSVKGRFTISRDNAKNTVYLQIYSLKPEDTAVYYCATLRPYAYPQYDSWGQGTQVTVSS	high polyreactivity
QVQLVESGGGLVQAGGSLRLSCAASGSIFNLYGMGWYRQAPGKERELVAGSTSSGGSTHYADSVKGRFTISRDNAKNTVYLQMNSLKPEDTAVYYCAKVWSFPSNYRAYYYWGQGTQVTVSS	high polyreactivity
QVQLVESGGGLVQAGGSLRLSCAASGRTFRYNALGWYRPAPGKERELVASITSGGSTNYADSVKGRFTMSRDNAKNTVYLQMNSLKPEDTAVYYCASDERRPYWQHSIGSGRPFDYWGQGTQVTVSS	low polyreactivity
QVQLVESGGGLVQAGGSLRLSCAASGSTFGSNAMGWYRQAPGKERELVAAISSIGGSTYYADSVKGRFTISRDNAKNTVYLQMNSLKTEDTAVYYCAAKYYGRYYRYLGSSFDYWGQGTQVTVSS	high polyreactivity
QVQLVESGRGLVQAGGSLRLSCAASGRTFRGNAMGWYREAPGKERELVAAIRYRGGSTYYADSVKGRFTISRDNAKNTVYLQMNSLKPEDTAVYYCARRYTVHTQHYDYWGQGTQVNVSS	high polyreactivity
QVQLVESGGGLVQAGGSLRLSCAASGRTFLWNAMGWYRQAPGKERELVAAIRGGTITYYADSVKGRFTISRDNAKNTVYLQMNSLKPEDTAVYYCAATSARGQYYWYCFNGYPYSEFGYWGQGTQVTVSS	low polyreactivity
QVQLVESGGALVQAGGSLRISCAASGSIFPQNAMGWYRQAPEKERELVAAITTGGGRTYYADSVKGRFTISRDNVKNTVYLQMNSLKPEDTAVYYCYIRWPFRHYGSWGLGTQVTVSS	high polyreactivity

Sequence	polyreactivity (PSR sort gate)
QVQIVESGGGLVQAGGSLRLSCAASGRTFNAYAMGWYRPAPGKERELVAAISGNGGSTYYADSVKGRFTISRDNAKNTVYLQMNSLKPEDTAVYYCYKVQRSLLGYNSWGQGTEVTVSS	high polyreactivity
QVQLVESGGGLVQAGGSLSLSCAASGRMFLRYAMGWYRQAPGKERELVAVITWSGGSTYYADSVKGRFTISRDNAKNTVYLQMNSLKPEDTAVYYCAADWYPTGFYYWGQGTQVTVSS	low polyreactivity
QVQLVESGGGLVQAGGSLRLSCAASGITFKRYAMGWYRQAPGKESELVATITWRDGSTYYADSVKGRFTISRDNAKNTVYLQMNSLKPEDTAVYYCAVAAYSRRSPYYHYNYWGQGTQVTVSS	high polyreactivity
QVQLVGSGGGLVQAGGSLRLSCAASGRTFWTNAMGWYRQAPGKERELVAAIRNSGGRTYYADSVKGRFTISRDNAKNTVYLQMNSLKPEDTAVYYCNARSSIRPRQGGYEHWGQGTQVTVSS	low polyreactivity
QVNLVESGGVSVQAGGSLRLSCAASGLIFDKYAMGWYRQAPGKERELVAAITRSSGTTYYADSVKGRFTISRDNAKNTVYLLLISVTPEDTAVYYCPAPFIWGYWGVGYYYWGQGTHVTVSS	low polyreactivity
QVQLVESGGGLVQAGGSLRLSCAASRFIFSVYTMGSYIQAPGKERELVAAISSGPSTTYADSVKGRFTISRDNAKNTVYLQMNSLKPEDTAVYYCARRDGTTQALFGYDYWGLGTQVTVSS	low polyreactivity
QVQLVESGGGLVQAGGSLRLSCAASGSIFFSSAMGWSRQEPGKERELVAAISSGASTYYADSVKGRFTISRDNAKNTVYLQMNSLKPEDTAVYYCAARGYRLVPVDFYYWGQGTQVTVSS	low polyreactivity
QVQHVDSVGGLVQAGRSLRLICAASGSTFTSYTKGWYRQAPLKERELVDRITRGGGSTYYADSVKGRFTISRDNAKNTVYLQMNSLKQEDTAVYYCAKHVVGSAYYSWGQGTQVTVSS	low polyreactivity
QVQLVESGGGLVQAGVSLSLSCAASGITFIIYVMGWYRQAPGKERELVAAISSTGSTYYADSVKGRFTISRDNAKNTVYLQMNSLKPEDTAVYYCAARGRRSSNGFYYWGQGTQVTVSS	high polyreactivity
QVQLVESVGGLVQAGGSLRLICAASGIIFKFNAMGWYRQAPGKEREFVAAIRWRGGSTYYADSVKGRFTISRDNAKNTVYLQMNSLKPEDTAVYYCAATYRTGYYYWGQGTQVTVSS	high polyreactivity
QVQLVESGGGLVQAGGSLRLSCAASGSTFVQYVMGWYRQAPGKERELVAAISSSGGSTYYADSVKGRFTISRDNAKNTVYLQMNSLKPEDTAVYDCAARRLPRPWTSTSDYWGQGTQVTVSS	high polyreactivity
QVQLVESGGGLVQAGGSLRLSCAASGGIFGWYAMGWYRQAPGKERELVAAITGGGSTYYADSVKGRFTISRDNAKNTVYLQMNSLKPEDTAVYYCNADYHTEEDYWGHGTQVTVSS	low polyreactivity
QVQRVESGGGLVQAGGSLRLSCAASRITFSVNALRWYRHAPGKDRELVASISSGGSTNYADSVQGGFTISRDNAKNTVDLQMNSLKQEDTAVYYCNADVGFGSMDYCGQGTQVTVSS	low polyreactivity
QVQLVESGGGLVQAGGSLRLSCAGSGSTFDGNAMGWYRQAPGKDRELVAAITSGGSTNYADSVKGRFTISRDNAKNTVYLQMNSLKPEDTAVYYCAADTVSFSILYDYWGQGTQVTVSS	low polyreactivity
QVKLVESGGGLVQAGGSLRLSCPASGRIFYTNARGWSRQQPGQESEFVAAISYSGGTTYYADSVKGRFTISRDNAKNNVYLQMNSLKPEDTAVYYCARRYRSYYYRSKMDYWGQGTQVTVSS	high polyreactivity
QVQLVESGGGLVQAGGSLRLSCAASGSIFDWNAMGWYRQAPGKERELVATISWDGGSTYYADSVKGRFTISRDNSKNTVYLQMNSLKPEDTAVYYCATVFTGKPAYYARTKYDYWGQGTQVTVSS	low polyreactivity
QVQLVESAGGIDQAGGRLRLSSAASGGIFTPYAMGCYRQAPGKDRELVATISSDGSTNYADSVKGRFTISRDNAKNTVYLQMNSLKPEDTAVYYCNIDRHKVAGTLPGWWYDYLGQGTQVTVSS	low polyreactivity
QVQLVESGGGLVQAGGSLRLSCAASGFIFARYAMGWYRQAPGKERELVASITRRGGSTYYADSVKGRFTISRDNAKNTVYLQMNSLKPEDTAVYYCARPNLLSGDYWGQGTQVTVSS	high polyreactivity
QVQLVESGGGLVQAGGSLRLSCAASGFNFPYYAMGWYRQAPGKERELVAAISSSGGSTYYADSVKGRFTISRDNAKNTVYLHMNSLKPEDTAVYYCAADAYSGYSDYYWGQGTQVTVSS	low polyreactivity
QVQLVESGGGLVQAGGSLRLSCAASGYIFYANAMGWYRQAPGKERELVASISTGGNTNYADSVKGRFTISRDNAKNTVYLQMKSLKPEDTAVYYCAVRSTVPYLWRTPVTRDYWGQGTQVTVSS	low polyreactivity
QDQLVESGGGIVQAGGSLRLSCAASGRTFGINAMGWSRQAPGKERELVAVISCGDGGTYYADSVKWRFTISRDNAKNTVYLQMKSLKPEDTAVYYCSSEYQSTSLWGGHFVINPYDYWGQATQVTVSS	low polyreactivity
